We go through 16 molecules from US20180282402A1 (ATYR PHARMA, published 2018).

In the assay the target is T1, Human HARS (human, UniProt P12081 1-509, limits assumed).
T1 construct: also called human HRS; human histidyl-tRNA synthetase
T1 sequence: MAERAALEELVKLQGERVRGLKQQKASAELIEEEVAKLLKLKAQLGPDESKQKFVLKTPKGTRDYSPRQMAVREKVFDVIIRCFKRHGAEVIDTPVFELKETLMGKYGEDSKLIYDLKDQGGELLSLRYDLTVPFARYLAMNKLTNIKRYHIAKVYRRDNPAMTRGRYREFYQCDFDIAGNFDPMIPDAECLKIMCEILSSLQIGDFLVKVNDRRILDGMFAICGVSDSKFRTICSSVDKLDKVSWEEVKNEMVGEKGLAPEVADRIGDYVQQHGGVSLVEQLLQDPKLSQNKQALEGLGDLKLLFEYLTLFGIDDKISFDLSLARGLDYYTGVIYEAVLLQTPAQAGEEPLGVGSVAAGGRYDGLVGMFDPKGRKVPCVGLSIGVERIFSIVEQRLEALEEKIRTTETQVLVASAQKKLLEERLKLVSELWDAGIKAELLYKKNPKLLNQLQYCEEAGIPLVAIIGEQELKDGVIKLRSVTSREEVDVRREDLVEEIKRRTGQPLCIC
Kind of assay: SPR (ProteOn); HRS protein immobilized, antibody as analyte.

B1: KL31-261 (antibody, V domains shown)
VH: QVQLVQSGAEVKKPGASVKVSCKASGYTFTDYCIGWIRQAPGQGLEWMGDICPGDVYTNDNEKFKDRATMTADTSTSTAYMELSSLRSEDTAVYYCARGEEQLGLRNAMDYWGQGTLVTVSS
VL: DIVMTQSPDSLAVSLGERATINCQSQSVSTSTYNYMHWYQQKPGQPPKLLIKYASNLESGVPDRFSGSGSGTDFTLTISSLQAEDVATYYCQHSWEIPWTFGGGTKVEIK
notes: Humanized; IgG1m(zf) kappa
For B1, the Kd is 0.67 nM. That is a sub-nanomolar value.

B2: KL31-523 (antibody, V domains shown)
VH: QVQLVQSGAEVKKPGASVKVSCKASGYTFTDYCIGWIRQAPGQGLEWMGDICPGDAYTNDNEKFKDRATMTADTSTSTAYMELSSLRSEDTAVYYCARGEEQVGLRNAMDYWGQGTSVTVSS
VL: DIVMTQSPDSLAVSLGERATINCQSQSVSTSTYNYMHWYQQKPGQPPKLLIKYASNLESGVPDRFSGSGSGTDFTLTISSLQAEDVATYYCQHSWEIPWTFGGGTKLEIK
notes: Humanized; IgG1m(zf) kappa
Molecule B2 yielded a Kd of 32.5 nM. Compared with the last molecule, the Kd is about 49-fold higher.

B3: KL31-131 (antibody, V domains shown)
VH: QVQLVQSGAEVKKPGASVKVSCKASGYTFTDYCIGWIRQAPGQGLEWMGDICPGDTYTNDNEKFKDRATMTADTSTSTAYMELSSLRSEDTAVYYCARGEEQLGLRNAMDYWGQGTLVTVSS
VL: EIVLTQSPATLSLSPGERATLSCQSQSVSTSTYNYMHWYQQKPGQAPRLLIKYASNLESGIPDRFSGSGSGTDFTLTISRLEPEDFATYYCQHSWEIPWTFGGGTKVEIK
notes: Humanized; IgG1m(zf) kappa
B3: binding was put at a Kd of 0.25 nM.

B4: KL31-600 (antibody, human IgG1, V domains shown)
VH: QVQLQQSGAELVRPGSSVRMSCKAVGYTFTDYCIGWIKQRPGHGLEWIGDICPGDAYTNDNEKFKDKATLTADTSSTTAYMQLSSLTSEDSAIYYCARGEEQVGLRNAMDYWGQGTSVTVSS
VL: DIVLTQSPASLAVSLGQRATISCQSQSVSTSTYNYMHWYQQKPGQPPKLLIKYASNLESGVPARFSGSGSGTDFTLNIHPVEEEDTATYYCQHSWEIPWTFGGGTKLEIK
In turn, B4 had a Kd of 12.2 nM.

B5: KL31-275 (antibody, IgG1, V domains shown)
VH: QVQLQQSGAELVRPGSSVRMSCKAVGYTFTDYCIGWIKQRPGHGLEWIGDICPGDAYTNDNEKFKDKATLTADTSSTTAYMQLSSLTSEDSAIYYCARGEEQVGLRNAMDYWGQGTSVTVSS
VL: DIVLTQSPASLAVSLGQRATISCQSQSVSTSTYNYMHWYQQKPGQPPKLLIKYASNLESGVPARFSGSGSGTDFTLNIHPVEEEDTATYYCQHSWEIPWTFGGGTKLEIK
notes: Mouse; IgG1 kappa
For B5, binding was characterised by a dissociation constant (Kd) of 6.79 nM.

B6: KL31-313 (antibody, IgG2a, V domains shown)
VH: QVQLQQSGAELVRPGSSVRMSCKAVGYTFTDYCIGWIKQRPGHGLEWIGDICPGDAYTNDNEKFKDKATLTADTSSTTAYMQLSSLTSEDSAIYYCARGEEQVGLRNAMDYWGQGTSVTVSS
VL: DIVLTQSPASLAVSLGQRATISCQSQSVSTSTYNYMHWYQQKPGQPPKLLIKYASNLESGVPARFSGSGSGTDFTLNIHPVEEEDTATYYCQHSWEIPWTFGGGTKLEIK
notes: Mouse; IgG2a kappa
Regarding B6, the Kd was found to be 277 nM.

B7: AB04-160 (antibody, V domains shown)
VH: QVQLVESGGGLVKPGGSLRLSCAASGFTFSDYYMTWIRQAPGKGLEWVSYISGSFRYTNYADSVKGRFTISRDNAKNSLYLQMNSLRDEDTAVYFCARYVYQVVAIGDLWGQGTLVTVSS
VL: DIQMTQSPSSVSASVGDRVTITCRASQGISSWLAWYQQKPGRAPKLLIFAASSLQSGVPSRFSGSGSGTHFTLTISSLQPEDFATYYCQQAKSFPYTFGQGTKLEIK
notes: Human; IgG1m(zf) kappa
B7: the Kd came to 0.06 nM. Compared with the last molecule, the Kd is about 4600-fold lower.

B8: AB04-411 (antibody, V domains shown)
VH: QVQLVESGGGLVKPGGSLRLSCAASGFTFSDYYMTWIRQAPGKGLEWVSYISGSNAYTDYADSVKGRFTISRDNAKNSLYLQMNSLRDEDTAVYFCARYVYQVVAVGDLWGQGTLVTVSS
VL: DIQMTQSPSSVSASVGDRVTITCRASQGISSWLAWYQQKPGRAPKLLIFAASSLQSGVPSRFSGSGSGTHFTLTISSLQPEDFATYYCQQAKSFPYTFGQGTKLEIK
notes: Human; IgG1m(zf) kappa
B8: binding was put at a Kd of 1.9 nM.

B9: AB04-174 (antibody, V domains shown)
VH: QVQLVESGGGLVKPGGSLRLSCAASGFTFSDYYMTWIRQAPGKGLEWVSYISGSNAYTDYADSVKGRFTISRDNAKNSLYLQMNSLRDEDTAVYFCARYVYQTVAIGDLWGQGTLVTVSS
VL: DIQMTQSPSSVSASVGDRVTITCRASQGISSWLAWYQQKPGRAPKLLIFAASSLQSGVPSRFSGSGSGTHFTLTISSLQPEDFATYYCQQAKSFPYTFGQGTKLEIK
notes: Human; IgG1m(zf) kappa
The molecule B9 gave a Kd of 170 nM. This Kd lies about 89-fold higher than the previous one.

B10: AB04-121 (antibody, V domains shown)
VH: QVQLVESGGGLVKPGGSLRLSCAASGFTFSDYYMTWIRQAPGKGLEWVSYISGSNAYTDYADSVKGRFTISRDNAKNSLYLQMNSLRDEDTAVYFCARYVYQVVAIGDYWGQGTLVTVSS
VL: DIQMTQSPSSVSASVGDRVTITCRASQGISSWLAWYQQKPGRAPKLLIFAASSLQSGVPSRFSGSGSGTHFTLTISSLQPEDFATYYCQQAKSFPYTFGQGTKLEIK
notes: Human; IgG1m(zf) kappa
B10 gave a Kd of 0.9 nM.

B11: AB04-151 (antibody, V domains shown)
VH: QVQLVESGGGLVKPGGSLRLSCAASGFTFSDYYMTWIRQAPGKGLEWVSYISGSFRYTNYADSVKGRFTISRDNAKNSLYLQMNSLRDEDTAVYFCARYVYQVVAIGDYWGQGTLVTVSS
VL: DIQMTQSPSSVSASVGDRVTITCRASQGISSWLAWYQQKPGRAPKLLIFAASSLQSGVPSRFSGSGSGTHFTLTISSLQPEDFATYYCQQAKSFPYTFGQGTKLEIK
notes: Human; IgG1m(zf) kappa
With B11, the Kd was found to be 0.025 nM.

B12: AB04-365 (antibody, V domains shown)
VH: QVQLVESGGGLVKPGGSLRLSCAASGFTFSDYYMTWIRQAPGKGLEWVSYISGSFAYTNYADSVKGRFTISRDNAKNSLYLQMNSLRDEDTAVYFCARYVYQVVAIGDYWGQGTLVTVSS
VL: DIQMTQSPSSVSASVGDRVTITCRASQGISSWLAWYQQKPGRAPKLLIFAASSLQSGVPSRFSGSGSGTHFTLTISSLQPEDFATYYCQQAKSFPYTFGQGTKLEIK
notes: Human; IgG1m(zf) kappa
Molecule B12 showed a Kd of 0.185 nM.

B13: AB04-380 (antibody, V domains shown)
VH: QVQLVESGGGLVKPGGSLRLSCAASGFTFSDYYMTWIRQAPGKGLEWVSYISGSFRYTNYAPSVKGRFTISRDNAKNSLYLQMNSLRDEDTAVYFCARYVYQVVAIGDLWGQGTLVTVSS
VL: DIQMTQSPSSVSASVGDRVTITCRASQGISSWLAWYQQKPGRAPKLLIFAASSLQSGVPSRFSGSGSGTHFTLTISSLQPEDFATYYCQQAESFPYTFGQGTKLEIK
notes: Human; IgG1m(zf) kappa
The molecule B13 had a Kd of 0.026 nM.

B14: AB04-482 (antibody, V domains shown)
VH: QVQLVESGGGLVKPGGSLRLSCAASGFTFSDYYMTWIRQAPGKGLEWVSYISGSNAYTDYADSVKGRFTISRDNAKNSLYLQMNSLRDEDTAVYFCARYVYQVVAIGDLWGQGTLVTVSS
VL: DIQMTQSPSSVSASVGDRVTITCRASQGISSWLAWYQQKPGRAPKLLIFAASSLQSGVPSRFSGSGSGTHFTLTISSLQPEDFATYYCQQAKSFPYTFGQGTKLEIK
notes: Human; IgG1m(zf) kappa
In the case of B14, the Kd amounted to 0.26 nM.

B15: AB04-483 (antibody, V domains shown)
VH: QVQLVESGGGLVKPGGSLRLSCAASGFTFSDYYMTWIRQAPGKGLEWVSYISGSNAYTNYADSVKGRFTISRDNAKNSLYLQMNSLRDEDTAVYFCARYVYQVVAIGDYWGQGTLVTVSS
VL: DIQMTQSPSSVSASVGDRVTITCRASQGISSWLAWYQQKPGRAPKLLIFAASSLQSGVPSRFSGSGSGTHFTLTISSLQPEDFATYYCQQAKSFPYTFGQGTKLEIK
notes: Human; IgG1m(zf) kappa
In the case of B15, the Kd was 0.265 nM.

B16: AB04-276 (antibody, V domains shown)
VH: QVQLVESGGGLVKPGGSLRLSCAASGFTFSDYYMTWIRQAPGKGLEWVSYISGSFAYTDYADSVKGRFTISRDNAKNSLYLQMNSLRDEDTAVYFCARYVYQVVAIGDYWGQGTLVTVSS
VL: DIQMTQSPSSVSASVGDRVTITCRASQGISSWLAWYQQKPGRAPKLLIFAASSLQSGVPSRFSGSGSGTHFTLTISSLQPEDFATYYCQQAKSFPYTFGQGTKLEIK
notes: Human; IgG1m(zf) kappa
B16: the affinity, expressed as Kd, was 0.46 nM.

A word on the Kd: it is a measure of binding affinity in units of concentration. A low value points to a tighter complex.
